Results: US8138323 (YEDA RESEARCH AND DEVELOPMENT, dated 2012)

Target: TNF (UniProt P01375 77-233)
Assay: cell-based or functional assay

Chain of TNF (P01375 77-233 limits assumed): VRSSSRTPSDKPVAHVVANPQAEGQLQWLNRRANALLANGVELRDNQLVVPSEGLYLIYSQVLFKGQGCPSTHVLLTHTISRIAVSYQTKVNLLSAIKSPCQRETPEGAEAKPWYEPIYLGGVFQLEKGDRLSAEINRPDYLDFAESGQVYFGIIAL

B1: Tumor Necrosis Factor (TNF) Binding Protein II (receptor, human, UniProt P20333 25-213, looked up)
chain: AQVAFTPYAPEPGSTCRLREYYDQTAQMCCSKCSPGQHAKVFCTKTSDTVCDSCEDSTYTQLWNWVPECLSCGSRCSSDQVETQACTREQNRICTCRPGWYCALSKQEGCRLCAPLRKCRPGFGVARPGTETSDVVCKPCAPGTFSNTTSSTDICRPHQICNVVAIPGNASMDAVCTSTSPTRSMAPGA
  detectable cytotoxicity of rTNF in the presence of TBP-II against rTNF alone, days 2 to 9: 10 fold
